{"source": "patent US20040214329", "test_system": "phiC31 integrase (Streptomyces phage phiC31?)", "experiment": "cell_activity", "conditions": "E. coli, 1% L-arabinose, 32 C, 60-120 min, resuspended 4:1 in fresh LB"}
{"substance": "phiC31 attB/attP sites flanking expression cassette in pBAD.phiC31.RHB", "values": [{"measurement": "activity (% recombination)", "value": "> 97"}]}
